Reference: publication PMC8024975

Biological target: P. aeruginosa ClpGGI WT (P. aeruginosa)

## FLRYLKASKVPLN [peptide 134]
  ATPase activity of 1 μM ClpGGI with increasing Pep134 concentrations (saturation of the stimulation at 25 μM peptide) (ATP min^−1 monomer^−1): 108
